Experimental data taken from the supplement of paper PMC7125110.
± gives the standard error. Fewer inactive variants are shown than the library holds.

B1: glmS ribozyme (parent)
chain: AUAAAAGCGCCAGAACUACAGAAAUGUAGUUGACGAGGAGGAGGUUUAUCGAAUUUUCGGCGGAUGCCUCCAAA

Columns and labels:
Details in all cases: with glucosamine-6-phosphate
[1] = variants of: B1; test: self-cleavage kobs at 40 uM GlcN6P; higher = faster cleavage; RNA array
In short: (§1)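 Barcoded glmS ribozyme variants on sequenced MiSeq chips were transcribed in situ by E. coli RNA polymerase and tracked through a hybridised Cy3 probe at 37 °C. Glucosamine-6-phosphate (40 μM to 10 mM) in HEPES/KCl/Mg(OAc)2 buffer was flowed in, and tiles were imaged over ~14 h. Signals were normalised to baseline and to non-cleaving reference variants; per-tile medians were fit to one- or two-exponential decays to give kobs. kcat and KM came from weighted Michaelis–Menten fits across concentrations.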

[2] = variants of: B1; test: self-cleavage kobs at 160 uM GlcN6P; higher = faster cleavage; RNA array
In short: as §1

[3] = variants of: B1; test: self-cleavage kobs at 640 uM GlcN6P; higher = faster cleavage; RNA array
In short: as §1

[4] = variants of: B1; test: self-cleavage kobs at 2500 uM GlcN6P; higher = faster cleavage; RNA array
In short: as §1

[5] = variants of: B1; test: self-cleavage kobs at 10000 uM GlcN6P; higher = faster cleavage; RNA array
In short: as §1

Variant	self-cleavage kobs at 40 uM GlcN6P [1] [s⁻¹]	self-cleavage kobs at 160 uM GlcN6P [2] [s⁻¹]	self-cleavage kobs at 640 uM GlcN6P [3] [s⁻¹]	self-cleavage kobs at 2500 uM GlcN6P [4] [s⁻¹]	self-cleavage kobs at 10000 uM GlcN6P [5] [s⁻¹]
G35U G40C	< 1e-05	< 1e-05	< 1e-05	< 1e-05	< 1e-05
A12U G29U	0.000958 ± 0.00022	–	–	–	0.019 ± 0.0045
G13U U49A C58A C68U C70U	< 1e-05	–	–	–	–
A14G G38U C50U	< 1e-05	–	–	–	–
G35U G41U U45C	< 1e-05	–	–	–	< 1e-05
C34A G44U	< 1e-05	< 1e-05	< 1e-05	< 1e-05	< 1e-05
G32A U47A	0.000103 ± 2.6e-05	8.74e-05 ± 1.8e-05	–	0.000897 ± 0.00019	0.00237 ± 0.00046
C8G G29U G66U	< 1e-05	–	–	–	–
G9A C34U	< 1e-05	–	< 1e-05	–	< 1e-05
A12G G41C C61U	< 1e-05	–	–	< 1e-05	< 1e-05
A6G G66U	< 1e-05	< 1e-05	< 1e-05	–	–
A48G U65A C68A	0.000357 ± 0.00011	–	–	–	0.000113 ± 3.1e-05
C11G U45G	< 1e-05	< 1e-05	< 1e-05	< 1e-05	< 1e-05
C11A U57A G60U	< 1e-05	–	–	–	–
A48C G59A	< 1e-05	< 1e-05	< 1e-05	< 1e-05	< 1e-05
C34U A53G C68G	7.28e-05 ± 3.2e-05	–	–	–	0.000655 ± 0.00017
A36U C58U	< 1e-05	–	< 1e-05	< 1e-05	< 1e-05
A33U G38C G40C U65A C70G	< 1e-05	–	–	< 1e-05	< 1e-05
A6C A36G	< 1e-05	< 1e-05	< 1e-05	< 1e-05	< 1e-05
C10G U30A C71G	< 1e-05	–	–	–	–
G9U U30C G43A	< 1e-05	–	< 1e-05	–	–
U49C C61G	< 1e-05	–	–	–	< 1e-05

Variant	self-cleavage kobs at 40 uM GlcN6P [1] [s⁻¹]	self-cleavage kobs at 160 uM GlcN6P [2] [s⁻¹]	self-cleavage kobs at 640 uM GlcN6P [3] [s⁻¹]	self-cleavage kobs at 2500 uM GlcN6P [4] [s⁻¹]	self-cleavage kobs at 10000 uM GlcN6P [5] [s⁻¹]
A53U G59C	< 1e-05	< 1e-05	< 1e-05	< 1e-05	< 1e-05
A36U C68G C70U	8.4e-05 ± 2.2e-05	–	–	–	0.000213 ± 4.7e-05
C8A G35C G66A C70G	< 1e-05	–	–	–	< 1e-05
G9C C70A	< 1e-05	< 1e-05	< 1e-05	–	< 1e-05
U49C U54G	< 1e-05	< 1e-05	< 1e-05	–	< 1e-05
G7C C68A	< 1e-05	< 1e-05	–	< 1e-05	< 1e-05
U47G U56G C70A	7.34e-05 ± 2.5e-05	0.000192 ± 3.8e-05	6.47e-05 ± 1.3e-05	7.39e-05 ± 1.8e-05	6.01e-05 ± 1.4e-05
C16G G29U C71U	0.000193 ± 4.3e-05	–	0.00358 ± 0.00079	0.00344 ± 0.0014	0.013 ± 0.0037
C10U G43A C70G	< 1e-05	–	–	–	–
G37U G40C	< 1e-05	< 1e-05	< 1e-05	< 1e-05	< 1e-05
A12C G38C U56C	< 1e-05	–	–	–	< 1e-05
A15U G40U G44A	< 1e-05	–	–	–	< 1e-05
G35U G38C	< 1e-05	–	< 1e-05	< 1e-05	< 1e-05
G9C A33U	< 1e-05	< 1e-05	< 1e-05	< 1e-05	< 1e-05
A6G G60U C68A	< 1e-05	–	< 1e-05	< 1e-05	< 1e-05
A12U A39G	0.00377 ± 0.00072	0.00677 ± 0.0016	0.0284 ± 0.013	0.0119 ± 0.0036	0.105 ± 0.045
U49G G59C	< 1e-05	< 1e-05	–	–	< 1e-05
U46G U54C C71U	8.18e-05 ± 1.8e-05	–	–	0.00226 ± 0.00098	0.00463 ± 0.0014
G38A U47A C71G	< 1e-05	–	–	–	< 1e-05
C10A G37U A42U C67G C68G	7.19e-05 ± 2e-05	–	–	–	–
G7C G9U	< 1e-05	–	< 1e-05	–	< 1e-05
